Measured values reported in the domain aggregation screens of Martell et al. (2025).

Experiment: soluble fraction after stress (log2 fold change); higher = more stays soluble; pooled small domains, quantitative proteomics
Conditions: stress: 50 degC
How it was run: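 The measure of aggregation propensity here is the base-two logarithm of the fold change in the soluble amount of each protein after stress. A higher value means more of that protein stays in solution. Stress was applied at 50°C to pooled libraries of small protein domains, read out by high-throughput quantitative proteomics.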

Sequence | soluble fraction (log2)
HMLNLNILTDKEKFIAKLISRGLSDSLIAKELYISISTVRSHVNSIYGKTNIKNRSHLASSFLYFELGNLL | -0.135
HMVDFHAAYSILRIAPGASWQEIQAAYEKLNDAWREDRYPQVPFWNEKAAFKRREVEQAYEKLRKFHALRH | -0.845
HMALLSNTVDELHAGMRLDSYLFESGLYPSRSFAVKQIEAGKVFLNGDAVTKKTLVSNGDFIVYELEE | -0.778
HMNLYENLATHVKNAIRQGVYQPGDRLPSVRRLSEQHRVSQNTAVSAYRLLESHGWLEARPQSGFFARHP | -1.11
HMGKHYLLKDDNGTITIYKILEDGTQEVYEKTEISTTYLPQTDNIGIKQGIRVNGDEALNELIENF | -0.0212
HMEIALNDKQILLFSNKLVHEPSFASKYSKVGESYDDFAIRISENLTIPDKVQEYLPYLEKVGFNI | -0.00852
HMKTSVGSKMMVMANNLSIRKSANLLSEKLADLSKGDMVEYISSTNGWNKVRYNGYVGYVSSYYLKDTGEV | -0.738
HMADGDIIPEGQRDATLASLAGSMRARGMTEAEILAALQVTNETRVRPPMALADLERIARSIGRYEPGK | 0.0818
HMTTGTVKWFNDAKGFGFITPDDRSVDVFVHYSNIVGQSGRRTLMEGERVEYEAIEGPKGPQATDVARA | -0.304
HMRAGHDFEALKHIESSLDKHLTDEGIKIKSEKRGAIVARWYQSHVEGREVTDDDVHTWIELFF | -3.5
HMGKKGPELSENEKSIFSILSKSGSMDLTTLKEASGLSNKQWDKGIKGLGKHGLTKVIKTEDALLVEVV | 0.0505
HMTMNYFIIENNQQVGPLTLEQLVARNITSDTLVWKEGMEDWQPAWKVDELHTVLDQIRANAEQ | -0.0599
HMAEPLYKQVKNKIIQNLTSDEWKPGSVIPSETKLAETYGVGVSTIRMAIGELVAARILIRRQGKGTFVSS | -1.85
HMESDRVAHVVAPGETLFSISGKYGIGMGELVAANPVLESRPPRTGDTLLIRLPENPLPAETDAETLS | 0.121
HMKPSKTDEAEYWLMERLEEGPQPAGDLIRIGEEFGYTPKILRDAGERFNMERYKDGLDHWMWKLPN | -0.0945
HMDNEIRIPLPSLQRDGFSIGTREDDGSQLVRIMSAGSFGGMIRSFRLPEGMRIEGAKWEGEIVSIRL | 0.0774
HMARSVAEFVERGRSGGSLERPKLQRMLEYIQDRPVDFVIVHKIDRLARNRADDAAITKTIRGAGAYLVST | -0.0402
HMTPPLSKIRNMTPDQQRSSVIEARKKGYNLLQLEGLAKAQGATPADLLVLRNAWAQSEFDQKR | 0.149
HMVSVLDHIVGIGAKRRQSLWNHFGTIDKIKAASIDELLKAPGMNRPSAEAVYYFFEAQRQLRGK | -0.744
HMSPAETGIYHILVENGKPNRHGLDATNKNENWLRQFLITQNTRLEDVFLLLADDGGGIRFFKSQ | -0.498
HMTKKEFLDILTESLAGNVPASEIEENIRYYKDYIENGEESEEKALEQLGDPHLIARTIIDSFIA | -0.127
HMSESLLTAAGFKTIAATTPEQKRHLEWLHPDQVTAVQLTGQHYYVYPDVAKSQLFVGTPKEYQAYLALRT | -0.414
HMEGLDDKTKIILFAGDKKEQEYSLADLKSKLNITENLTESELIKLLEKQGYVLDVNANNEFMFKKD | -0.0985
HMGHASPGNREALQFALERHQARAAEFAEKAGLSIANASTKFKQLWEQGFLMRNESVADSGGVEFLYQR | -0.0221
HMDPRTSSLTPQERKVLELVGGGLTNRQIAAEMFLAEKTVKNYVSSLLAKLGFERRTQAAVFIASPAF | -0.541
HMSEYEYALHEFGITKKQSQRIFDRLSIADLEERINAIQTTLKQRSDIDNPAAYAWTVLNAE | -0.207

Sequence | soluble fraction (log2)
HMGDDVRKNILDVLSKFERVDITDLDSLELVRFYLEIEDIFDIEIKENDFYRLKSVDSIVDYIRNKSFF | -1.2
HMGPASTGAHQLGLKPGDEVTHRAWGEGVVTSTTGEGDRAEAVVDFDAVGEKRLLLAWAPLER | 0.00864
HMKNLSQAEFMYLFKILAFGSTDPDNHPEMAATGMEIAKMLQGLLLSGNVLADILRKNQNVQFWL | -0.204
HMRLPQEVWEKIRAAYEAHGLSFSELAEMYGVNKSNISRRAKAEGWNQAETQRLITATVENE | 0.267
HMHLTRYLHTMIRAANLDDTLDFFVEKLGLIEAYRYSNEAGRFTLVFLSAPDDLESAQSRQAPLVEITYN | -0.107
HMEDGEALARAVASLPGKYREVLFLKYSHGYSVDEIALILSMSKENVKKTIQRARKKLEQLLESE | -0.898
HMENLIEELTAKNKEYIHSVTKQLILVGKSDEEVKEILNDILPQIIEGQKSGIIARKLLGAPTEFVSQYQP | 0.011
HMSEKLTLEAANEAAGMRIDKWLAMQLPELSRSRIEALISGGGVVVNGKNPSKSLKLKGGEQIELEIPE | 0.0725
HMQQGVEQLPVTEVGGRLMHYYEVQPKETLYSLSHKLGVGQEYIEQHNPSVRGGLRAFMTLYFPAA | -0.0212
HMIFEEDILKEFRGSLIFITHDRRFLDNIATRIIELDRGKLLSFPGNFSAYKKAKNEQLANEAVENA | -0.446
HMTDWNTVEKETLSAIQKVLSGQASWIDLSPADHSIRHMQHEMVQQAGLISQSYGKEPMRRIRIYQNP | 0.117
HMESIPDELLEAFKQDPAFKQAFYALTAGRQRGYIIHFSQPKQSQTRIGRIEKYKEQIFNGIGLN | -0.643
HMHQKELLNLSYKEAKRYILDDFERVFFTNLLRKTGGNVSRAAQLAQVHRKNLYVKLTELGIDPRQFG | -1.43
HMVWTAGEVVERIRERVGHPATIRELMQVLTIPPEDRHRFRRRIMQLVEAGELIRIRGNRYGLAD | -2.3
HMLENIVFTNKFKNKRLDVLLVDMKLVSSRQKAVSLIMRGNVFVEEERADKPGKIIKLNQTISLKK | -2.6
HMQNAETPDVAAEFRTWTSADGQFQVIAKLVKLDGESVHLERQDDGRQIAVPLGKLSSEDRLFLRGVRP | 0.0447
HMNINLDINTYTVKELEKLLKLEVPYSDNNVFEKKNLMVKMIQTSTIAETKKEELYIFLDNIYNRLTNNLE | -1.35
HMEIIMIVITKPSITDERIAEIVAVIERNGGVQAHVSKGTDRTVIGIIGKAEPTLAEHLRQMKGVENVIKI | 0.0636
HMGTRTILGIDPGSRKTGFGIIRLDGSRTHYVSSGVIRIPDTALPERLKIIFASLNEIIQQFQPQEV | 0.0673
HMGRELDLNQRVYDFIHDIADEVRTDEGTFSANQMMERFLFPGDLQSVPIGRLSGGERRRLYLLSVLMVKI | 0.117
HMHLKDEHGLTPKQRAFADEYVITLNATVSYKKIYSVKRDSVASTNGSRLLGNANVKAYIDKRLEE | -2.19
HMGPRVSAGPGRHRVQPGDTLDDIAARYRVSSRDLMLVNGLRNANHVEAGQTLKLPSNAVIA | 0.28
HMGDIQFMEYRINHSSGWIGKNISDFAAVSKNLVILIKRGQDVVIPRGPTAIMEDDVLVLHA | -1.6
HMSNWTILIIQGSAHLIDLDSKITEIDGFGSFPTKILQDYNLNEEFEIFDTNVKMVNSVQSDLQSN | -2.56
HMLLFNPGEVLKGFVLQSGTNNRVLLQIGDSRVIADTQTPLKAGEQLVLRVEETGPKTILQILG | 0.101
HMSQRITYTEFVQMVKDDKVEKVEVGANQYNITPKSDDKTLVKMTYYTGFIKDENLLDLLNKHKVEIDGYI | 0.157

Sequence | soluble fraction (log2)
HMNPGNTESFPVYQKRLGEIIQTLAGKKGQDINSPEVKELVGEYDFLTKQMFQLPDATSMVMEIATAYRN | 0.0462
HMDNEIEQIVEDLNLTLSSLKYTKNQIESILPLIIKEIDDFKKKEKNISFENLLKLAMNHLDND | -0.269
HMDKELILLWDRVKSKVWQMDIQDSQVANWFQRNYHLTVRLRDFDPPVPPDKFTAEQLASFIKDIERHT | -0.597
HMQSNIHELQKKLNEALQALSEDHRAVVTMFDIQGMPHAEISKILGVSEGTVRSRLYYAHQQLQGHL | -1.03
HMAQSEDLMVMAQRILGGPEAQSFFQAEATRQGLAGFLPEPIPDFLQRLERKLSGSVGSATAHAMVAQTMG | -0.179
HMEPDTVVVPNFVGKVYASEIEGNEAYSDFTFVIKEGNDPEQDIGVVLKQTPNEGLEVKKGKEITLTINQ | -0.0593
HMDRSKREKEQQELMLKVQQIFDDNQQRFGAEKIRTVLAQNGVRVSVKRVSAIMQELNLRSIR | -0.871
HMSSPDMSLLYSELDVKDSGQIVTILEQRNIPYEVRNNGSQIYIPSNNVQRIRLSLAQEGLPSG | -0.0716
HMQSLAAKINGYIVAQRTSIAAIAKEIGYSRVTVSRYLAGKYDSDPTGIEAKLAAFLAGQTGEE | -1.75
HMQEVILEKIQLTYLSADKLSKMAEQFSIPVKMYWVDENPMMLMVMGNESDIATFKKVLTQIDIPENKS | 0.0714
HMTEQLTLVGKTGVTTTDLRPSGKVEVDGKRYDAVADNGAFISKGAHIKVVRYVTGQVYVVPTD | 0.0883
HMSSEDTQSRDRARKELSNEMSRIMKRYGLDYQPRDNADDIMNRLKAAGADENTLAYVQEKLK | 0.134
HMTESFEFTMNDLVQNNLIMGSGAKERRIAVGEALGIGYTNAKQFLSRLNHYGITRKEFDDEIEKVNQN | -0.158
HMLDLSEEEQKIVSILEKQGNLQINSLVVEADIPVHKINAILFELEMKGVVRVLALSLIHISEP | 0.0725
HMSENKIMEIVQDLAREKSVILISHRLANVTAADKILYMEQGKIAESGTHEQLMAQNKAYAALFNKQQEL | -0.11
HMTDLVVGLAGITLEPLRPAGKAEFNGSVVDVVSLGDYIEKSTAIQIVEIEGNRIVVHHGED | -0.0705
HMKAPDSQYKPLTDFQTDASFQKLDAYLRNRYPAMLANAVVYDVLRTPDAISYRVNYQVDNKMITINAAVT | -0.126
HMKVTQDIIFKRNGEEIKSKVLEITPDLIIYIDYSRADNIAREINISEVNMIIYKNGTSEIFSRPEE | 0.101
HMSVALSENIKTRRKALKMSQEYVAEQLDISRQAVAKWEAGKSEPTTENLVKLAALFEMSVSELVE | -0.369
HMVKPKIILADIGMITETDVTLAKASQAVLIAFNVKPSKEAKKLAEDENIKISTYNIIYEVLDFVKKSMSG | 0.12
HMKILNYQSLVGKKGITKSMLRPAGIVEIEGRRYDVVTRGEFIEPGKMITVDEVQGNRIIVQIERE | -0.165
HMSDDSYLVALAEAYKNATSWDIRRQVLSIMTGVSSYKEISRYIPGLTQYRLSISNLHRLQYGRAAPVP | 0.0583
HMEGNFFADIRQELMRELDQEAEWSDVQILEKIDDLVLLRTRRSSLTVNEKEQLRKELFYSVRK | -0.0909
HMQEKIREVANRIRELRESLEVSPEEMADHLKVTIGTYIEYERGEADIPASVLFGIAHRLNVDMAVLL | 0.142
